Experimental data published in patent US20240239907A1 (EDELWEISS IMMUNE, published 2024).
Where a chain is given by its changes, count along the chain named.

T1: cynomolgus monkey CXCR6 (cynomolgus monkey, UniProt Q9BDS6 1-343)
T1 construct: also called cyno-CXCR6; cyno monkey CXCR6
T1 sequence: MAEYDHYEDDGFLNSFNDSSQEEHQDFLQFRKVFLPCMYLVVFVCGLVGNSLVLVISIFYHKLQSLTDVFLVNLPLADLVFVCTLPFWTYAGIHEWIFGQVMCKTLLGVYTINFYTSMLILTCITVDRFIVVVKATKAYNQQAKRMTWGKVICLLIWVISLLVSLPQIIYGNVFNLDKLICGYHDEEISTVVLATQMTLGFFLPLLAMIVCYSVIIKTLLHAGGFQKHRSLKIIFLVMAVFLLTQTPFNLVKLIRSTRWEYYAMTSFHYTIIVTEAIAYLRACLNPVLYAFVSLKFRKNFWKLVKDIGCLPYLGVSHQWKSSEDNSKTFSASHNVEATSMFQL

B1: Beacon2-F1 (antibody, V domains shown)
VH: EVQLVESGGDLVKPGGSLKLSCAASGFTFSSYGMSWVRQTPDKRLEWVATISSGGSYTYYPDSVKGRFPISRDNAKNTLYQQMSSLNSEDTAMYYCARLYGNYPYFAMDYWGQGTSVTVSS
VL: DIVMTQSQKFMSTSVGDRVSITCKASQNVGTAVAWYQQKPGQSPKLLIFSASNRYTGVPDRFTGSGSGTDFTLTISNMQSEDLADYFCQQYSSYPYTFGGGTKLEIK
notes: Mouse-derived; tested at the screening stage
B2: CNE-6E5-C1 (antibody, V domains shown)
VH: QVTLKESGPGILQSSQILSLTCSFSGFSLITSGMGVSWIRKTSGKGLEWLAHIYWDDEKRYNPSLKSRLTISKGTSRNQVFLRITSVDTTDTATYFCVRREDFGDGFDYWGQGTTLTVSP
VL: DVLMTQAPLSLPVSLGDQASISCRSSQTIVHSNGVTYLEWYLQKPGQSPKLLIYKVSNRFSGVPDRFSGSGSGTYFTLKISRVEAEDLGVYYCFQGSHVPPTFGGGTKLEIK
notes: as for B1
B3: CNGs-3B2 (antibody, V domains shown)
VH: DVQLVESGGGLVQPGGSRTLSCAASGFTFSSFGMHWVRQAPEKGLEWVAYISSGSTTIYYADTVKGRFTISRDNPKNTLFLQVTSLRSEDTAVYYCTRSHWPYWYFDVWGAGTTVTVSS
VL: DVQITQSPSYLAASPGETITINCRASKSISKYLAWYQEKPGKTNKLLIYSGSTLQSGNPSRFSGSGSGTDFTLTISRLEPEDCAMYYCQQHNEFPWTFGGGTKLEIK
notes: as for B1
B4: CNE-7B1 (antibody, V domains shown)
VH: QVQLQQSGPELVKPGTSVRISCKTSGYTFTSSYVHWVKRRPGQGLEWIGWIYPGNDYTKYNEKFKGKATLTADKSSSTAYMRLSSLASEDSAVYFCTRSYYGFDYWGQGTTLTVSS
VL: B2 VL with A7T, S26G, T28S, H31R, N33R, V35N, Y75D, P101Y
notes: as for B1
B5: CNGs-1B7-E4 (antibody, V domains shown)
VH: EVQLVESGGGLVQPRGSLKLSCAASGFTFNTYAMNWVRQAPGNGLEWVARIRSKSYNYATYHAGSVKDRFTISRDDSQNMLYLQMNNLKTEDTAMYYCMRGQTYWGQGTLVTVSA
VL: DVVLTQTPLSLPVNIGDQASISCKSTKSLLNSDGFTYLDWHLQKPGQSPQLLIYLVSNRFSGVPDRFSGSGSGTDFTLKISRVEAEDLGVYYCFQSNYLPFTFGSGTKLEMK
notes: as for B1
B6: CNGs-1E1-G5 (antibody, V domains shown)
VH: QVQLQQSGPELVKPGASVRISCKASGYTFTTSYIHWVKQRPGQGLEWIGWISPGNVNTRSNEKFKGKATLTADKSSNTAYMQLSSLTSEDSAVYFCAKSYFGFDFWGQGTTLTVSS
VL: B2 VL with A7T, T28S, V35N, L42V, F60S, Y75D, P101Y
notes: as for B1
B7: CNGs-3H2-B7 (antibody, V domains shown)
VH: EVQLVESGGGLVQPKGSLKLSCAASGVSFKTYAMTWVRQAPGKGLEWVARIRSKRYNYATYYADSVKDRFTISRDDSESMLYLQMNNLKTEDTAMYYCMRQGAYWGQGTLVTVSA
VL: B5 VL with H41Y, Q50H, M111I
notes: as for B1
B8: Beacon2-A3 (antibody, V domains shown)
VH: EVQIVESGGGLVQPKGSLKLSCAASGFSFNTYAMNWVRQAPGKGLEWVARIRTKRNNYVKFYADSVKDRFTISRDDSESMLYLQMNILKTEDTAMYYCVRQGAYWGQGTLVTVSA
VL: B5 VL with H41Y, Y92F, F101Y, S105G, M111I
notes: as for B1
B9: Beacon2-E5 (antibody, V domains shown)
VH: B8 VH with I4L, D68G, E78Q, I87N, T90A, M95I, Y104F
VL: B5 VL with H41Y, K79R, F101Y, S105G, M111I
notes: as for B1
B10: Beacon2-A7 (antibody, V domains shown)
VH: EMKLEESGGGLVQPGGSMKLSCVASGFTFSNYWMSWVRQSPEKGLQWVGQIRLKSDNYATHYAESVKGKFTISRDDSKSSVYLQMNNLRAEDTGIYYCAPYSNWGYWGQGTTLTVSS
VL: DIVMTQAAPSIPVTPGGSVSISCRSTKSLLHTNGNTYLYWFLQRPGQSPQVLIYRMSNLASGVPDRFSGSGSGTAFTLRISRVEAEDVGVYYCMQYLEYPYTFGSGTKLEIK
notes: as for B1
B11: Genovac1-D12 (antibody, V domains shown)
VH: EVKLEESGGGLVQPGGSMKLSCVASGFTFSNYWMNWVRQSPEKGLKWVAQIRLKSDNYGTHYAESVKGRFTISRDDSKGSVYLQMNNLRAEDTGIYYCTSNAWFAYWGQGTLVTVSA
VL: DIVMTQAAPSVPVTPGESVSISCRSSKSLLHSNGNTYLFWFLQRPGQSPQRLISYMSNLASGVPDRFSGRGSGTDFTLRISRVEAEDVGVYYCLLSLEYPYTFGSGTRLEIT
notes: as for B1
B12: Genovac2-H2 (antibody, V domains shown)
VH: EVKLEESGGGLVRPGGSMKLSCVASGFTFSDYWMNWVRQSPEKGLEWLAQIRLNSGNYAARYAESVKGRFTISRDDSKNSVYLQMINLRAEDTGIYFCTSNAWLANWGQGTLVTVSA
VL: DIQMTQSPASLSVSVGETVTITCRASENIYNNLAWYQQKQGKSPQLLVYAATNLADGVPSRFSGSGSGTQYSLKINSLQSEDFGSYYCQHFWGTPWTFGGGTKLEIK
notes: as for B1
B13: Beacon1-A4 (antibody, V domains shown)
VH: EVQLQQSGPVLVKPGASVKMSCKTSGYTFTDYYMNWVKQSHGKSLEWIGVIKPYSGRTSYDQKFKDKATLTVDKSSSTAYMELNSLTSEDSAVYYCAREGVSITTVGSSLYYYPMDYWGQGTSVTVSS
VL: DIVLTQSPATLSVTPGASVSLSCRASQSISNNLHWYQQKSHESLRLLIKYASQSVSGIPSRFSGSGSGTDFTLTINSVETEDFGMYFCQQSNSWPRTFGGGTKLEIK
notes: as for B1
B14: Genovac2-C1 (antibody, V domains shown)
VH: DVKLVESGGGLVKPGGSLKLSCAASGFTFSSYTMSWVRQTPEKRLEWVATISSGGSYTYYPDSVKGRFTISRDNAKNTLYLQMSSLKSEDTAMYYCTRGGGNYPFWFFDVWGAGTTVTVSS
VL: DIQMTQSPASLSASVGETVTITCRASENIYSYLAWYQQKQGKSPQLLVYNAKTLAEGVPSRFSGSGSGTQFSLKIKSLQPEDFGSYYCQHHYGIPRTFGGGTKVETK
notes: Mouse antibody
B15: CNE-6E10 human/mouse chimeric antibody with human IgG1 Fc (antibody, V domains shown)
VH: EVQLVESGGGLVQPKGSLKLSCAASGFSFNTYAMNWVRQAPGKGLEWVARIRSKTNSYETYYADSVKDRFTISRDDSESMLYLQMNNLKTEDTAVYYCLSHGAFAYWGQGTLVTVSA
VL: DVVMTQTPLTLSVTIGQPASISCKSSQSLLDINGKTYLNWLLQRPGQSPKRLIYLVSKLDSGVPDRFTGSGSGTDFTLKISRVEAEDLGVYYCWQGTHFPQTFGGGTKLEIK
B16: COXs-2D2 human/mouse chimeric antibody with human IgG1 Fc (antibody, V domains shown)
VH: EVQLVESGGGLVQPKGSLKLSCTASGFSFDTYAMNWVRQAPGKGLEWIARIRSKSKNYATYYADSVKDRFTISRDDSANILYLQMNNLKTEDTAIYYCLRQGSFDYWGQGTTLTVSS
VL: DVVLTQTPLSLPVSLGDQASISCRSGQRIVHTDGNTYLYWYLQKPGQSPKLLIYRVSNRFSGVPDRFSGSGSGTDFTLKISRVEAEDMGIYYCFQGTHFPYTFGGGTKLEIK
B17: chimeric COXs-1B10 (antibody, V domains shown)
VH: QVTLKESGPGILKASQTLSLTCSFSGFSLSTSGMGIGWIRQPSGKGPEWLAHIWWDDEKYYRPSLKSRLTVSKDTSRNQVFLNITSVDTTDSASYYCVQRTPGRFAYWGQGTLVTVST
VL: DIVMTQSPSSLAVSIGQKVIMSCKSSQSLLSSRTQKNYLAWYQQKPGQSPKLLVYFASIRESGVPDRFTGSGSGTDFTLTISTVQAEDLAVYYCQQYFLTPYTFGGGTKLEIK
notes: also called COXs-1B10 human chimeric mAb
B18: Genovac1-G2 human/mouse chimeric antibody with human IgG1 Fc (antibody, V domains shown)
VH: DVQLQESGPGLVKPSQSLSLTCSVTGYSITSGYYWNWIRQFPGNKLEWMGYIRYDGSNNYNPSLKNRISITRDTSKNQFFLKLNSVTTEDTATYYCARDGYSTYFDYWGQGTTLTVSS
VL: B14 VL with K76N, I94T, R96W, V104L, T106I

What follows are binders tested against T2, human CXCR6 (human, UniProt O00574 1-342) (assay: screening on cells overexpressing CXCR6, one single concentration, yes/no).
T2 construct: also called hu-CXCR6; wild type human CXCR6
T2 sequence (O00574 whole entry): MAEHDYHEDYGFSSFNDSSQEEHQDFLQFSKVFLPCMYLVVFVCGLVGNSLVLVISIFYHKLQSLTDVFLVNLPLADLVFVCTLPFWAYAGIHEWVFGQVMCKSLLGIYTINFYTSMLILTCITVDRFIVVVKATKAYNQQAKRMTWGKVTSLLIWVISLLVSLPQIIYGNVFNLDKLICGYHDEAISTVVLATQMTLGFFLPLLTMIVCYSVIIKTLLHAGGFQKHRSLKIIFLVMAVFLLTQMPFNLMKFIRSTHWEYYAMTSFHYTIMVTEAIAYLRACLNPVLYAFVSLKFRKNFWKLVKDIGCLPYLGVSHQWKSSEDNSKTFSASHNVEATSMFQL
B1: binds. B2: binds. B3: binds. B4: binds. B5: binds. B6: binds. B7: binds. B8: binds. B9: binds. B10: binds. B11: binds. B12: binds. B13: binds.

What follows are binders tested against T1, cynomolgus monkey CXCR6 in the same assay as above.
B1: binds. B2: binds. B3: binds.

What follows are binders tested against T1, cynomolgus monkey CXCR6 (assay: flow cytometry on cells overexpressing CXCR6, serial dilutions of antibody (FIG. 11)).
Description: Wild type C57BL/6 mice were immunized and boosted with a full-length human CXCR6-vector. Prior to immunization, the vector was tested for cell surface expression of native human CXCR6 on transfected mammalian cell lines by flow cytometry to ensure a successful immunization and screening. Genetic immunization was performed by ballistically delivering DNA-coated gold particles into the skin of wild type C57BL/6 mice to elicit a target-specific immune response. After the serum test showing satisfactory titer of antibody binding to both human CXCR6 and cyno monkey CXCR6, mice were sacrificed. A single B cell platform was used to sequentially screen bone marrow antibody-producing plasma cells for binding to both human and cyno monkey CXCR6. The conventional hybridoma technique was used on splenocytes and lymph node cells. […] After sequencing the VH and VL, clones with distinct CDRs were further expressed as full-length murine antibodies or human chimeric antibodies. […]
Cells overexpressing human-CXCR6 (hu-CXCR6), cyno monkey CXCR6 (cyno-CXCR6) or mouse CXCR6 were cultured in DMEM medium containing 10% FCS. […] After two rounds of washing with PBS/0.5% BSA buffer, cells were further stained with fluorescence dye-labeled secondary antibody. After two more rounds of washing, cells were resuspended in PBS/0.5% BSA, fixed, and collected by flow cytometry and analyzed.
B14: binds.

These binders were tested against T2, human CXCR6 (assay: description of the chimeric clones used in the ADCC example).
B15: binds. B16: binds. B17: binds. B18: binds.

These binders were tested against T1, cynomolgus monkey CXCR6 in the same assay as above.
B18: binds.
